Test results as given in publication PMC9169858 (2022).
Where “and” joins values, the source holds several entries; their conditions need not be identical. Identical values can stand only once.

Biological target: SARS-CoV-2 main protease (M^pro), pGEX4T-1 construct, GST removed by thrombin (SARS-CoV-2, UniProt P0DTD1)
Assay: BLI

B1: NB2E3 (VHH)
VHH: QVQLQESGGGSVQAGGSLRLSCAVSGFIATSCALGWFRQAPGKEREGIATITTDGTTYYVDSVKGRFTISQDNAKNTVALQMNSLKPEDTAMYYCKLCCSGQYCAWGQGTQVTVSS
  Kd: 2.7 nM

B2: NB1D10 (VHH)
VHH: QVQLQESGGGSVQAGGSLRLSCAVSGYSYCNYDLGWFRQAPGKEREGIATIDSDGNTYYVDSVKGRFTISQDNAKNTVALQMNSLKPEDTAMYYCKVGSIASSVPEVSCPPSAPFGYWGQGTQVTVSS
  Kd: 0.43 nM and 0.431 nM
